Assay results as given in patent US20220411491A1 (Hoffmann-La Roche, published 2022).
Numbering of substitutions follows the chain as printed.

B1: P1AE5733 (antibody, V domains shown)
VH: EVQLVESGGGLVQPGRSLKLSCAASGFSFSNYGMAWVRQAATKGLEWVASISTGGGNTYYRDSVKGRFIVSRDNAKNTQYLQMDSLRSEDTATYYCTRHDRGGLYWGQGVMVTVSS
VL: DIVMTQAPLSVSVTPGESASISCRSSKSLLHSNGITYVYWYFQKPGKSPQVLIYRMSNLASGVPDRFSGSGSETDFTLKISRVEAEDVGIYHCGQLLENPYTFGAGTELELK
B2: P1AE5742 (antibody, V domains shown)
VH: EVQLVESGGGVVQPGRSLRLSCAASGFSFSNYGMAWVRQAPGKGLEWVASISTGGGNTYYRDSVKGRFTISRDNAKNTLYLQMNSLRAEDTAVYYCTRHDRGGLYWGQGTMVTVSS
VL: DIVMTQSPDSLAVSLGERATINCKSSKSLLHSNGITYVYWYQQKPGQPPKLLIYRMSNLASGVPDRFSGSGSGTDFTLTISSLQAEDVAVYHCGQLLENPYTFGQGTKLEIK
B3: P1AE5743 (antibody, V domains shown)
VH: B2 VH
VL: EIVLTQSPGTLSLSPGERATLSCRASKSLLHSNGITYVYWYQQKPGQAPRLLIYRMSNLASGIPDRFSGSGSGTDFTLTISRLEPEDFAVYHCGQLLENPYTFGQGTKLEIK
B4: P1AE5749 (antibody, V domains shown)
VH: B2 VH with E1Q, R61A, A75S
VL: B3 VL
B5: P1AE5738 (antibody, V domains shown)
VH: B2 VH with E1Q, A75S
VL: B3 VL
B6: P1AE5758 (antibody, V domains shown)
VH: B2 VH with V11L, R16G
VL: B2 VL
B7: P1AE5753 (antibody, V domains shown)
VH: B2 VH with R61A
VL: B2 VL
B8: P1AE5759 (antibody, V domains shown)
VH: B2 VH with V11L, R16G
VL: B3 VL
B9: P1AE5754 (antibody, V domains shown)
VH: B2 VH with R61A
VL: B3 VL
B10: P1AE5737 (antibody, V domains shown)
VH: B2 VH with E1Q, A75S
VL: B2 VL
B11: P1AE5747 (antibody, V domains shown)
VH: B2 VH with E1Q, R61A, A75S
VL: B2 VL
B12: P1AE5763 (antibody, V domains shown)
VH: B2 VH with V11L, R16G, R61A
VL: B2 VL
B13: P1AE5764 (antibody, V domains shown)
VH: B2 VH with V11L, R16G, R61A
VL: B3 VL

Each binder was assayed against human GPRC5D (human, UniProt Q9NZD1 1-345) (assay: cell-based or functional assay).
Sequence of human GPRC5D (Q9NZD1 whole entry): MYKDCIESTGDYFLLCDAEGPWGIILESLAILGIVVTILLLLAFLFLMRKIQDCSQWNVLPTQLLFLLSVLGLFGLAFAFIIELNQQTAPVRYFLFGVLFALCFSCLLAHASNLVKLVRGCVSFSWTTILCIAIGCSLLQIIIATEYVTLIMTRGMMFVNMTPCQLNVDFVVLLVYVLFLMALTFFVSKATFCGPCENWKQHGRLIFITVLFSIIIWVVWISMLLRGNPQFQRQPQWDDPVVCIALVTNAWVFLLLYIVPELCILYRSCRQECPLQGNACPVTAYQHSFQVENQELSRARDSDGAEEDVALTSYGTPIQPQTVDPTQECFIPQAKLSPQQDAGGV

Row | CAR-J2 EC50 [mg/L] | Binder
1 | 0.00265 | B1
2 | 0.0619 | B2
3 | 0.583 | B3
4 | 0.0826 | B4
5 | 0.397 | B5
6 | 0.19 | B6
7 | 0.03 | B7
8 | 0.0157 | B8
9 | 0.00889 | B9
10 | 0.00295 | B10
11 | 0.183 | B11
12 | 0.00547 | B12
13 | 0.0782 | B13
